The target of this assay is T1, wild-type HCV E1E2 (genotype 1a, strain H77) expression construct with C-terminal V5 epitope tag (Hepatitis C virus genotype 1a, strain …, strain).
T1 construct: also called wild-type E1E2; E1E2 complex; source: HEK-293T, transfected, in fixed and permeabilised cells; not shown: V5, C-terminal, kept
The assay can be described thus: flow cytometry on cells; E1E2 library clones in HEK-293T, 22 h, fixed in 4% paraformaldehyde, permeabilised with 0.1% saponin; stained with mAb (0.33 to 2.0 ug/ml) or CD81-LEL-Fc, Alexa Fluor 488 secondary antibody; Intellicyt HTFC; signal as percent of wild-type E1E2 after subtraction of mock. As to conditions: one partner purified. Background: In flow cytometry, cells or beads pass a laser one at a time.

B1: monoclonal antibody AR3C (antibody, V domains shown)
VH: VQLLEQSGAEVKKPGSSVKVSCETSGGTFDNYALNWVRQAPGQGLEWIGGVVPLFGTTRNAQKFQGRVTISDDKSTGTGHMELRSLRSEDTAVYYCVRSVTPRYCGGGFCYGEFDYWGQGTLVTVSS
VL: EIELTQSPATLSVSPGERATLSCRASQSVSSNLAWYQQKPGQAPRLLIYGASTRATGIPARFSGSGSGTEFTLTVSRLEPEDSAVYFCQQYYRSPLTFGGGTKVEIK
notes: also called mAb AR3C
As for B1, the binding result is reported as “binds”.

Values taken from paper PMC5749897 (PLoS Pathogens, 2017).
